Laboratory results: US20230203117A1

Target: IL-10Rβ on human primary monocytes and CD8 T cells (human) (UniProt Q08334)
Assay: cell-based or functional assay

Chain of IL-10Rβ on human primary monocytes and CD8 T cells (human) (Q08334 20-325): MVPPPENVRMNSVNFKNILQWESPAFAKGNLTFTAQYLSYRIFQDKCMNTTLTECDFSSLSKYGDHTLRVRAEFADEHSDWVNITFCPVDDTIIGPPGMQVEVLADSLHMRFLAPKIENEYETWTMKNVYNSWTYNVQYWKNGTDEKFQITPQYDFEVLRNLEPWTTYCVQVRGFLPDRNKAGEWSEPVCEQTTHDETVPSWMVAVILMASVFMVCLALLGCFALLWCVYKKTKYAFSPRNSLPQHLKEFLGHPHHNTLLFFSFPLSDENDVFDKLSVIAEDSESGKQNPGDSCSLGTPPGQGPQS
Chain of wild type IL-10 dimer (WTD) (P22301 other isoform, or with tags, fused parts or gaps): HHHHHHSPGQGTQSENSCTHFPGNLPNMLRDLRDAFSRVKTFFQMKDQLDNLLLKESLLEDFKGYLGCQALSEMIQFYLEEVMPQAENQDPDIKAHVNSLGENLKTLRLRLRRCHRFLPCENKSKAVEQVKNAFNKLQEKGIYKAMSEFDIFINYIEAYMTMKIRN

Substance | granzyme B production in CD8 T cells, flow cytometry | reduction of HLA-DR surface levels in human primary monocytes | pSTAT1 and pSTAT3 in human CD8 T cells, amplitude of activation (% of the dimeric molecules) | pSTAT1 and pSTAT3 in human monocytes, amplitude of activation (percentage of WTD)
wild type IL-10 dimer (WTD) (from UniProt P22301 19-178) (ligand) | 2.5 fold | 50% |  | 
wild type monomeric IL-10 (WTM), recombinant (ligand) |  | 20% | < 25 | < 50
